According to US20240400657A1 (MorphoSys, published 2024):
Residue numbers refer to the chain shown, from its start.

B1: MAB #2 (antibody, human IgG1, lambda)
heavy: EVQLVESGGGLVKPGGSLRLSCAASGFTFSSYAMHWVRQAPGKGLEWVGRIKSVAQGGTTDYAAHVKGRFTISRDDSKNTLYLQMNSLKTEDTAVYYCARVSHSTFDVWGQGTLVTVSSASTKGPSVFPLAPSSKSTSGGTAALGCLVKDYFPEPVTVSWNSGALTSGVHTFPAVLQSSGLYSLSSVVTVPSSSLGTQTYICNVNHKPSNTKVDKRVEPKSCDKTHTCPPCPAPEAEGAPSVFLFPPKPKDTLMISRTPEVTCVVVDVSHEDPEVKFNWYVDGVEVHNAKTKPREEQYNSTYRVVSVLTVLHQDWLNGKEYKCKVSNKALPSSIEKTISKAKGQPREPQVYTLPPSREEMTKNQVSLTCLVKGFYPSDIAVEWESNGQPENNYKTTPPVLDSDGSFFLYSKLTVDKSRWQQGNVFSCSVMHEALHNHYTQKSLSLSPGK
light: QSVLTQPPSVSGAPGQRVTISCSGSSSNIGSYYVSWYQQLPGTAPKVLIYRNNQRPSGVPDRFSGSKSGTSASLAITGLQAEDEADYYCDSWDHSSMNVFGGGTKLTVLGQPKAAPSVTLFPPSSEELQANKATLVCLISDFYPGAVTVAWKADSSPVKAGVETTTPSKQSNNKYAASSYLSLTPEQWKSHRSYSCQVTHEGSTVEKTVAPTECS
notes: lambda 1 light chain
B2: MAB #1 (antibody, human IgG1, lambda)
heavy: B1 heavy with V54K, H103F
light: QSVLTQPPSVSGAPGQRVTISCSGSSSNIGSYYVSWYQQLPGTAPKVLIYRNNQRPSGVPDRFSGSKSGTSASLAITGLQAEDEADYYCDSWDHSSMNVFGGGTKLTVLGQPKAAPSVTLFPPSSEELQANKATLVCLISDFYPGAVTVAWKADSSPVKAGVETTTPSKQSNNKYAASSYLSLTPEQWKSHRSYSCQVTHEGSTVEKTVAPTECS
notes: lambda 1 light chain, VH3-15 framework

Assays:
[1] = target: T1, full length mouse C5aR stably expressed on CHO Flp-In cells (mouse (Mus musculus), UniProt P30993 1-351); test: FACS, CHO Flp-In cells expressing murine C5aR, single IgG concentration
T1 sequence: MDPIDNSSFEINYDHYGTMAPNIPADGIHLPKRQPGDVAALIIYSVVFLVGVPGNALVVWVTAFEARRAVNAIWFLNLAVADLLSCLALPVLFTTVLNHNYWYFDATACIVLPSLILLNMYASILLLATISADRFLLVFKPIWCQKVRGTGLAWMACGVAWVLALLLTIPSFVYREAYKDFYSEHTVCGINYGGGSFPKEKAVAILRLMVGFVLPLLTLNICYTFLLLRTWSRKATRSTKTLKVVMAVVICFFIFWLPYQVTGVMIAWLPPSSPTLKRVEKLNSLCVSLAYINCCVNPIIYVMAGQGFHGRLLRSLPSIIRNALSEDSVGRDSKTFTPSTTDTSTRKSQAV

[2] = target: T2, engineered version of human C5aR expressed on CHO cells of the PathHunter β-arrestin assay (DiscoveRx) (human, UniProt P21730 1-350); test: cell-based or functional assay
T2 sequence (looked up): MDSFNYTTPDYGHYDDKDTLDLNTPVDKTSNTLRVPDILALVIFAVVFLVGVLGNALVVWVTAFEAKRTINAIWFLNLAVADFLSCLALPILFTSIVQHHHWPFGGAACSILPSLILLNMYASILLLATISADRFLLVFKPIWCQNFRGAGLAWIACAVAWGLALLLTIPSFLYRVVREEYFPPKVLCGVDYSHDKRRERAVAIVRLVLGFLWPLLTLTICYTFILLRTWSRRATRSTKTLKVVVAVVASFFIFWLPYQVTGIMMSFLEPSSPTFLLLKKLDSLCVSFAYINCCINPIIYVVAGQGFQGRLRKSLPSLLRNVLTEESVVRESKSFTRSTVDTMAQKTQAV

[3] = target: T3, Human FcγRIIIa (1-193)-(158V)-HIS6 (human, UniProt P08637 17-193); test: BLI (Octet), IgG captured on Protein A sensors, FcγR titrated
T3 construct: Extracellular region with C-terminal 6xHis tag; UniProt P08637 printed
Protocol: (§1) 2.0 nm of IgGs diluted in Octet assay buffer (PBS, 0.05% (v/v) Tween-20, 0.1% (w/v) BSA) were captured on Protein A sensors (FortéBIO, Pall Life Sciences). Kinetic measurements were performed using 7 concentrations of Fc gamma receptors (2n serial dilution) in assay buffer. […] All sensorgrams were fitted using Data Analysis Software 10.0, (FortéBIO, Pall Life Sciences) to determine kₒₙ and koff rate constants, which were used to calculate KD. The raw data was fitted with a 1:1 binding model, with parameter Rₘₐₓ set to local.

[4] = target: T4, Human FcγRIIIa (1-193)-(158F)-HIS6 (human, UniProt P08637 17-193); test: as above
T4 construct: Extracellular region with C-terminal 6xHis tag; UniProt P08637 printed
Protocol: as §1

Human C1q = target: T5, Human C1q (human, UniProt P02745 23-245; P02746 28-253; P02747 29-245); test: BLI (Octet), IgG captured via anti-hu Fab CH1 kappa/lambda on SA sensors, C1q titrated
T5 construct: mature; Plasma-derived complex; also called C1q protein; huC1q
Description: 2.0 nm of IgGs diluted in Octet® buffer were captured onto anti-hu Fab CH1 kappa/lambda (BAC) immobilised onto streptavidin (SA) sensors (FortéBIO, Pall Life Sciences). […] All sensorgrams were fitted using Data Analysis Software 9 (FortéBIO, Pall Life Sciences) to determine the apparent affinity. The data was fitted with a steady state model.

[5] = target: T6, Mouse FcRn p51 [1-297]/AviHis/p14 biotinylated (mouse, UniProt Q61559 22-298; P01887 21-119, biotinylated in vitro with BirA (Avi tag)); test: BLI (Octet HTX), biotinylated FcRn on SA sensors, IgG titrated, steady state fit, apparent KD, pH 7.2
T6 construct: Heterodimer; UniProt Q61559 (p51); also called Murine FcRn
T6 chain 1: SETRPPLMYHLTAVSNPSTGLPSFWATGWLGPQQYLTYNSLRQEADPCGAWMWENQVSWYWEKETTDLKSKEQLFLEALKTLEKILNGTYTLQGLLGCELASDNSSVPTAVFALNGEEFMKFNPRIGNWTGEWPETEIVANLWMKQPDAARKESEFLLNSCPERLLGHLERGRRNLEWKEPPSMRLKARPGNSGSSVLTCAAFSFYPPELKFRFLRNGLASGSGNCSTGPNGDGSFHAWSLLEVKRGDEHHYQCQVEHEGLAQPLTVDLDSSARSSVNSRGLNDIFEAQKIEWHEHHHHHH
T6 chain 2: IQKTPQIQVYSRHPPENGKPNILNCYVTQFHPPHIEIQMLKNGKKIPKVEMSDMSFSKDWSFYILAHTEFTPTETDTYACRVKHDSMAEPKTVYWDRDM
Description: (§2) 0.5 nm of biotinylated human, cynomolgus, mouse and rat FcRn were captured on streptavidin (SA) sensors (FortéBIO, Pall Life Sciences). […] All sensorgrams were fitted using Data Analysis Software 10.0 (FortéBIO, Pall Life Sciences) to determine the apparent affinity and the data was fitted with a steady state model.

[6] = target: T7, Rat FcRn p51 [1-298]/AviHis/p14 biotinylated (rat, UniProt P13599 23-299; P07151 21-119, biotinylated in vitro with BirA (Avi tag)); test: as above
T7 construct: Heterodimer; UniProt P13599 (p51)
T7 sequence 1: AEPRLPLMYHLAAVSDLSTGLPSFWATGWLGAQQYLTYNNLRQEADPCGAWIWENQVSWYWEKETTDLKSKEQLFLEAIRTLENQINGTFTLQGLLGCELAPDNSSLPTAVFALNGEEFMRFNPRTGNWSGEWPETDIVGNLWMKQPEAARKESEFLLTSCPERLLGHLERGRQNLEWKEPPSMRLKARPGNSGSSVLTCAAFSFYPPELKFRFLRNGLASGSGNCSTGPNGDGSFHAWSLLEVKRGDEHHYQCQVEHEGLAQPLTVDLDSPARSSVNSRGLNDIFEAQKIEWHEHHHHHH
T7 sequence 2: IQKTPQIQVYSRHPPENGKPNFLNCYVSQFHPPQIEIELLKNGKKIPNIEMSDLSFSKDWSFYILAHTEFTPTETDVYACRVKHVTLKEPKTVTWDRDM
Description: as §2

[7] = target: T8, full length cynomolgus C5aR stably expressed on CHO Flp-In cells (cynomolgus monkey (Macaca fascicularis)); test: FACS on Flp-In CHO cells, IgG titration
T8 chain: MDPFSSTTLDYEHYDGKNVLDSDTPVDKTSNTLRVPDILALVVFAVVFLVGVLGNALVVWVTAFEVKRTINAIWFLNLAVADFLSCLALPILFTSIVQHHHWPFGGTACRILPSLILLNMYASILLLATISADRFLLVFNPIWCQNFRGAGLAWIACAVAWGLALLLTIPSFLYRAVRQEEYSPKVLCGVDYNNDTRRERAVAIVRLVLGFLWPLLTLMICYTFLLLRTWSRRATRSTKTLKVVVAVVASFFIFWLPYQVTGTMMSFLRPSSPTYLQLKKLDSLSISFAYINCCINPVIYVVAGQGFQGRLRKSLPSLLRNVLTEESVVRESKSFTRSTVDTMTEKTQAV
Protocol: (§3) The C5aR-CHO Flp-In™ cell lines were blocked and IgGs were added either in serial dilutions or at a single (high) concentration of 300 nM. For detection of IgG binding, an R-phycoerythrin (R-PE) conjugated anti-human IgG (Fc-gamma fragment specific)2 antibody was added and fluorescence was measured using the FACS Array or Novocyte device.

[8] = target: T9, full length human C5aR stably expressed on CHO Flp-In cells (human, UniProt P21730 1-350); test: FACS on Flp-In CHO cells, IgG titration
T9 construct: also called human C5aR expressed on CHO cells
T9 sequence: T2 sequence (looked up)
Protocol: as §3

T3 sequence (P08637 other isoform, or with tags, fused parts or gaps): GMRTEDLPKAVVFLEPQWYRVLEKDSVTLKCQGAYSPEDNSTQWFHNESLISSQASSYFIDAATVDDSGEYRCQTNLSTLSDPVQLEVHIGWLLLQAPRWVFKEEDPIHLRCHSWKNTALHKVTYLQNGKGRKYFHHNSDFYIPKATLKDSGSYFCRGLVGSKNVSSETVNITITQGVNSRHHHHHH
T4 sequence (P08637 other isoform, or with tags, fused parts or gaps): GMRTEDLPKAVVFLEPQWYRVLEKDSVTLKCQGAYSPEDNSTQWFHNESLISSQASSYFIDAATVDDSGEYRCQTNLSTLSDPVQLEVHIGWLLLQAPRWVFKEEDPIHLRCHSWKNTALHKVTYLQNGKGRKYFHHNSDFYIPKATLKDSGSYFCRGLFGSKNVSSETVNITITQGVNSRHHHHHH
T5 sequence (P02745 23-245, chain 1 of 3): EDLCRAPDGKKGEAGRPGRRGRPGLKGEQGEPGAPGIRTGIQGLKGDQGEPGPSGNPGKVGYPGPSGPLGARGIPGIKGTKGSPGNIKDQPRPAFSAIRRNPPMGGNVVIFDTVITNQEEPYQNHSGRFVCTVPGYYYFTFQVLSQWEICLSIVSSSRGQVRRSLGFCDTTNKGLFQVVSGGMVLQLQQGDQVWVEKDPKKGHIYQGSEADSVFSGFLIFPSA
T5 sequence (P02746 28-253, chain 2 of 3): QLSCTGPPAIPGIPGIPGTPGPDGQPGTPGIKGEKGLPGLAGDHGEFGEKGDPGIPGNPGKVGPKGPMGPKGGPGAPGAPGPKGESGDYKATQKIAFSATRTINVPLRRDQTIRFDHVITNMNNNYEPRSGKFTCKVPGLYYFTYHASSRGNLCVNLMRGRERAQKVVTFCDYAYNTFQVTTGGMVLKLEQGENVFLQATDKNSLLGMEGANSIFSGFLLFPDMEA
T5 sequence (P02747 29-245, chain 3 of 3): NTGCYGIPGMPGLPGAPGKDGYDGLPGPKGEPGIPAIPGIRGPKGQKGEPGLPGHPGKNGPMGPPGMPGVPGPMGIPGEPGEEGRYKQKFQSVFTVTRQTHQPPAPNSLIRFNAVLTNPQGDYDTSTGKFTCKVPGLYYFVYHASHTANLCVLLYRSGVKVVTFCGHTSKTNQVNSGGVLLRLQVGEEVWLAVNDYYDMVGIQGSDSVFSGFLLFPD

Binder	binding result [1]	[%] inhibition at 1.2 nM C5a and 50 nM IgG, β-arrestin recruitment [2] [%]	[%] inhibition at 11 nM C5a and 50 nM IgG, β-arrestin recruitment [2] [%]	[%] inhibition at 100 nM C5a and 50 nM IgG, β-arrestin recruitment [2] [%]	binding result [3]	binding result [4]	binding result (Human C1q)	Kd [5] [nM]	Kd [6] [nM]	EC50 [7] [nM]	EC50 [8] [nM]
B1	no binding (tested: 300 nM)	90.5	75.2	31.2	no binding	no binding	no binding (tested: 500 nM (highest C1q concentration))	130	300	1.4	1.2
B2	no binding (tested: 300 nM)	91.9	79.9	41.8	no binding	no binding	no binding (tested: 500 nM (highest C1q concentration))	39	110	1.1	1.7
